From patent US20260132182A1 (published 2026)
Starred links: 1 amine or outer side, 2 acyl side, 3 side chain; linkers in the order of their positions; H or OH if unused. Non-standard residues stand in square brackets, D forms with d. Groups on a side chain read outwards from the residue. *: point of attachment. Butyryl(4-SO2NHCO(CH2)16Tz) = O=C(CCCCCCCCCCCCCCCCc1nnn[nH]1)NS(=O)(=O)CCCC(=O)*; C20 diacid = O=C(O)CCCCCCCCCCCCCCCCCCC(=O)*; C18 diacid = O=C(O)CCCCCCCCCCCCCCCCC(=O)*; γGlu = O=C(O)[C@H](CCC(=O)[*:2])N[*:1]; C14 diacid = O=C(O)CCCCCCCCCCCCC(=O)*; Desaminohistidyl = O=C(CCc1c[nH]cn1)*; Trx = NC[C@H]1CC[C@H](C(=O)O)CC1; AEEA = NCCOCCOCC(=O)O; Aib = CC(C)(N)C(=O)O

What was measured:
[1] = molecular target: human GLP-1 receptor (human, UniProt P43220 24-463); experiment: cell-based or functional assay
[2] = molecular target: T1, human amylin-3 (a) receptor (human, UniProt P30988 25-474; O60896 24-148); experiment: cell-based or functional assay
T1 sequence (looked up) 1: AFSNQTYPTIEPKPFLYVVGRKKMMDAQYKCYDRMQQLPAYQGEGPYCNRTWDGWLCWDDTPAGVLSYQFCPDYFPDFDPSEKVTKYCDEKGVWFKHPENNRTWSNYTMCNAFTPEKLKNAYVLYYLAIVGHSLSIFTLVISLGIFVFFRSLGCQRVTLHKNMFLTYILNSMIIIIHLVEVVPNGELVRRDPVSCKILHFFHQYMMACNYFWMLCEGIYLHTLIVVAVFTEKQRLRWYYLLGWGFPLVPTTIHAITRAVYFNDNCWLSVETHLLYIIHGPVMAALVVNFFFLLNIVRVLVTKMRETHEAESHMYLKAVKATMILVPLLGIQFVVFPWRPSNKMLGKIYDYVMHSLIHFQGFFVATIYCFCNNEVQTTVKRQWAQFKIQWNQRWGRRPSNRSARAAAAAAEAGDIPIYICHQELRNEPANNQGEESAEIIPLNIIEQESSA
T1 sequence (looked up) 2: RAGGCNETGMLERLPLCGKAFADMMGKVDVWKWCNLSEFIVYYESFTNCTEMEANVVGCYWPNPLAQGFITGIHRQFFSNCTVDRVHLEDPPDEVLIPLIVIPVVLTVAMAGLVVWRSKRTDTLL

B1: Compound 0141 (peptide)
peptide: H[Aib]EGTFTSDVSSYLEEQAAREFIAWLVRGRK([γGlu-C20 diacid])EASELSTAALGRLSAELHELATLPRTETGSGSP-NH2
**Q.** For B1, which “Human GLP-1R potency [EC50 (pM)]” value [1] is on record?
**A.** 43.3 pM

**Q.** What about the “Human AmyR3 potency [EC50 (pM)]” value [2] of the same binder?
**A.** 13.2 pM

B2: Compound 0636 (peptide)
peptide: H[Aib]EGTFTSDVSSYLEEQAARK([AEEA-AEEA-γGlu-γGlu-γGlu-C20 diacid])FIEWLVRGRQEAASELSTAALGRLSAELHQLATLPRTETGSGSP-NH2
**Q.** How did the “Human AmyR3 potency [EC50 (pM)]” value [2] turn out when B2 was run?
**A.** 8.5 pM

B3: Compound 0142 (peptide)
peptide: [Desaminohistidyl][Aib]EGTFTSDVSSYLEEQAAREFIAWLVRGRK([γGlu-C20 diacid])EASELSTAALGRLSAELHELATLPRTETGSGSP-NH2
**Q.** What does the source list for B3?
**A.** Human GLP-1R potency [EC50 (pM)] [1]: 88.2 pM; Human AmyR3 potency [EC50 (pM)] [2]: 15.4 pM

B4: Compound 0145 (peptide)
peptide: H[Aib]EGTFTSDVSSYLEEQAAREFIAWLVRGRGK(Butyryl(4-SO2NHCO(CH2)16Tz))GGGASELSTAALGRLSAELHELATLPRTETGSGSP-NH2
**Q.** For B4, which “Human GLP-1R potency [EC50 (pM)]” value [1] is on record?
**A.** 11.9 pM

**Q.** And the “Human AmyR3 potency [EC50 (pM)]” value [2]?
**A.** 16.5 pM

B5: Compound 0131 (peptide)
peptide: H[Aib]EGTFTSDVSSYLEEQAARK([γGlu-C18 diacid])FIAWLVRGRK([γGlu-C18 diacid])EASELSTAALGRLSAELHELATLPRTETGSGSP-NH2
**Q.** With B5 as the binder, how does the “Human GLP-1R potency [EC50 (pM)]” value [1] read?
**A.** 16.1 pM

**Q.** What about the “Human AmyR3 potency [EC50 (pM)]” value [2] of the same binder?
**A.** 14.5 pM

B6: Compound 0125 (peptide)
peptide: H[Aib]EGTFTSDVSSYLEEQAARK(Butyryl(4-SO2NHCO(CH2)16Tz))FIAWLVRGRGEASELSTAALGRLSAELHELATLPRTETGSGSP-NH2
**Q.** What does the source list for B6?
**A.** Human GLP-1R potency [EC50 (pM)] [1]: 8 pM; Human AmyR3 potency [EC50 (pM)] [2]: 12.2 pM

B7: Compound 0035 (peptide)
peptide: [Desaminohistidyl]AEGTFTSDVSSYLEEQAAREFIAWLVRGRK([AEEA-AEEA-γGlu-Trx-C20 diacid])EASELSTAALGRLSAELHELATLPRTETGSGSP-NH2
**Q.** How did the “Human GLP-1R potency [EC50 (pM)]” value [1] turn out when B7 was run?
**A.** 16.7 pM

**Q.** And the “Human AmyR3 potency [EC50 (pM)]” value [2]?
**A.** 16 pM

B8: Compound 0026 (peptide)
peptide: H[Aib]EGTFTSDVSSYLEGQAAK([AEEA-AEEA-γGlu-C18 diacid])EFIAWLVRGRGQEPGQAPEASELSTAALGRLSAELHELATLPRTETGSGSP-NH2
**Q.** Which “Human GLP-1R potency [EC50 (pM)]” value [1] does the source give for B8 here?
**A.** 8.8 pM

**Q.** And the “Human AmyR3 potency [EC50 (pM)]” value [2]?
**A.** 14 pM

B9: Compound 0151 (peptide)
peptide: H[Aib]EGTFTSDVSSYLEGQAAREFIAWLVRGRK([AEEA-AEEA-γGlu-C18 diacid])GGGGEASELSTAALGRLSAELHELATLPRTETGSGSP-NH2
**Q.** For B9, which “Human GLP-1R potency [EC50 (pM)]” value [1] is on record?
**A.** 10.4 pM

**Q.** What about the “Human AmyR3 potency [EC50 (pM)]” value [2] of the same binder?
**A.** 9.5 pM

B10: Compound 0147 (peptide)
peptide: H[Aib]EGTFTSDVSSYLEEQAAREFIEWLVRGK(Butyryl(4-SO2NHCO(CH2)16Tz))ASELSTAALGRLSAELHELATLPRTETGSGSP-NH2
**Q.** What does the source list for B10?
**A.** Human GLP-1R potency [EC50 (pM)] [1]: 36.8 pM; Human AmyR3 potency [EC50 (pM)] [2]: 33.7 pM

B11: Compound 0106 (peptide)
peptide: H[Aib]EGTFTSDVSSYLEEQAARK([Ado-Ado-γGlu-C18 diacid])FIEWLVRGK([Ado-Ado-γGlu-C18 diacid])GEGQEPGGASELSTAALGRLSAELHELATLPRTETGSGSP-NH2
**Q.** How did the “Human AmyR3 potency [EC50 (pM)]” value [2] turn out when B11 was run?
**A.** 28.4 pM

B12: Compound 0156 (peptide)
peptide: H[Aib]EGTFTSDVSSYLEGQAAK([AEEA-AEEA-γGlu-C18 diacid])EFIAWLVRGRGQAPGQEPEASELSTAALGRLSAELHELATLPRTETGSGSP-NH2
**Q.** Which “Human GLP-1R potency [EC50 (pM)]” value [1] does the source give for B12 here?
**A.** 22.6 pM

**Q.** What about the “Human AmyR3 potency [EC50 (pM)]” value [2] of the same binder?
**A.** 22.6 pM

B13: Compound 0039 (peptide)
peptide: HGEGTFTSDVSSYLEEQAARK([AEEA-AEEA-γGlu-C14 diacid])FIEWLVRGK([AEEA-AEEA-γGlu-C14 diacid])GEASELSTAALGRLSAELHELATLPRTETGSGSP-NH2
**Q.** How did the “Human GLP-1R potency [EC50 (pM)]” value [1] turn out when B13 was run?
**A.** 34.8 pM

**Q.** And the “Human AmyR3 potency [EC50 (pM)]” value [2]?
**A.** 59.5 pM

B14: Compound 0128 (peptide)
peptide: H[Aib]EGTFTSDVSSYLEEQAARK([AEEA-AEEA-γGlu-C18 diacid])FIEWLVRGK([AEEA-AEEA-γGlu-C18 diacid])GGEASELSTAALGRLSAELHELATLPRTETGSGSP-NH2
**Q.** B14 was tested. Which “Human GLP-1R potency [EC50 (pM)]” value [1] did it give?
**A.** 9.7 pM

**Q.** And the “Human AmyR3 potency [EC50 (pM)]” value [2]?
**A.** 110 pM

B15: Compound 0129 (peptide)
peptide: H[Aib]EGTFTSDVSSYLEEQAARK([AEEA-AEEA-γGlu-C18 diacid])FIEWLVRGRK([AEEA-AEEA-γGlu-C18 diacid])GGEASELSTAALGRLSAELHELATLPRTETGSGSP-NH2
**Q.** B15 was tested. Which “Human GLP-1R potency [EC50 (pM)]” value [1] did it give?
**A.** 1.2 pM

**Q.** What about the “Human AmyR3 potency [EC50 (pM)]” value [2] of the same binder?
**A.** 23.5 pM

B16: Compound 0124 (peptide)
peptide: [Desaminohistidyl][Aib]EGTFTSDVSSYLEEQAAREFIAWLVRGRK(Butyryl(4-SO2NHCO(CH2)16Tz))EASELSTAALGRLSAELHELATLPRTETGSGSP-NH2
**Q.** What does the source list for B16?
**A.** Human GLP-1R potency [EC50 (pM)] [1]: 27.9 pM; Human AmyR3 potency [EC50 (pM)] [2]: 24.4 pM

B17: Compound 0157 (peptide)
peptide: H[Aib]EGTFTSDVSSYLEGQAAK([AEEA-AEEA-γGlu-C20 diacid])EFIAWLVRGRGQAPGQEPEASELSTAALGRLSAELHELATLPRTETGSGSP-NH2
**Q.** B17 was tested. Which “Human GLP-1R potency [EC50 (pM)]” value [1] did it give?
**A.** 28.7 pM

**Q.** And the “Human AmyR3 potency [EC50 (pM)]” value [2]?
**A.** 18.4 pM

B18: Compound 0146 (peptide)
peptide: H[Aib]EGTFTSDVSSYLEEQAAREFIEWLVRGK(Butyryl(4-SO2NHCO(CH2)16Tz))GGGASELSTAALGRLSAELHELATLPRTETGSGSP-NH2
**Q.** B18 was tested. Which “Human GLP-1R potency [EC50 (pM)]” value [1] did it give?
**A.** 25.7 pM

**Q.** What about the “Human AmyR3 potency [EC50 (pM)]” value [2] of the same binder?
**A.** 14 pM

B19: Compound 0127 (peptide)
peptide: H[Aib]EGTFTSDVSSYLEEQAARK([AEEA-AEEA-γGlu-C18 diacid])FIAWLVRGK([AEEA-AEEA-γGlu-C18 diacid])GGEASELSTAALGRLSAELHELATLPRTETGSGSP-NH2
**Q.** Which “Human GLP-1R potency [EC50 (pM)]” value [1] does the source give for B19 here?
**A.** 7.1 pM

**Q.** And the “Human AmyR3 potency [EC50 (pM)]” value [2]?
**A.** 63.9 pM

B20: Compound 0132 (peptide)
peptide: H[Aib]EGTFTSDVSSYLEEQAAREFIAWLVRGK([AEEA-AEEA-γGlu-C18 diacid])GGEASELSTAALGRLSAELHELATLPRTETGSGSP-NH2
**Q.** What does the source list for B20?
**A.** Human GLP-1R potency [EC50 (pM)] [1]: 3 pM; Human AmyR3 potency [EC50 (pM)] [2]: 34.9 pM

B21: Compound 0007 (peptide)
peptide: H[Aib]EGTFTSDVSSYLEGQAAK([AEEA-AEEA-γGlu-C18 diacid])EFIAWLVRGRGGGEASELSTAALGRLSAELHELATLPRTETGSGSP-NH2
**Q.** Which results are given for B21?
**A.** Human GLP-1R potency [EC50 (pM)] [1]: 13.3 pM; Human AmyR3 potency [EC50 (pM)] [2]: 9.4 pM

B22: Compound 0144 (peptide)
peptide: H[Aib]EGTFTSDVSSYLEEQAAREFIAWLVK([AEEA-AEEA-γGlu-C18 diacid])GRGGGGGEASELSTAALGRLSAELHELATLPRTETGSGSP-NH2
**Q.** Which results are given for B22?
**A.** Human GLP-1R potency [EC50 (pM)] [1]: 7.1 pM; Human AmyR3 potency [EC50 (pM)] [2]: 16.8 pM
